Laboratory results from paper PMC7693034, “Identification of Amino Acid Residues Responsible for C−H Activation in Type‐III Copper Enzymes by Generating Tyrosinase Activity in a Catechol Oxidase” (Angewandte Chemie (International Ed. in English), 2020).
Substitutions are numbered along the chain they refer to. Names may count otherwise.

Assays:
[1] = target: T1, CgAUS (aurone synthase from Coreopsis grandiflora) (Coreopsis grandiflora, UniProt A0A075DN54, C182S/T338D/R342D); experiment: enzyme kinetics, diphenolase activity; type: biochemical; conditions: type-III copper enzyme; read-out: Dopamine / K m
T1 construct: recombinant from E. coli, purified to homogeneity
T1 sequence (A0A075DN54 86-602 C182S/T338D/R342D): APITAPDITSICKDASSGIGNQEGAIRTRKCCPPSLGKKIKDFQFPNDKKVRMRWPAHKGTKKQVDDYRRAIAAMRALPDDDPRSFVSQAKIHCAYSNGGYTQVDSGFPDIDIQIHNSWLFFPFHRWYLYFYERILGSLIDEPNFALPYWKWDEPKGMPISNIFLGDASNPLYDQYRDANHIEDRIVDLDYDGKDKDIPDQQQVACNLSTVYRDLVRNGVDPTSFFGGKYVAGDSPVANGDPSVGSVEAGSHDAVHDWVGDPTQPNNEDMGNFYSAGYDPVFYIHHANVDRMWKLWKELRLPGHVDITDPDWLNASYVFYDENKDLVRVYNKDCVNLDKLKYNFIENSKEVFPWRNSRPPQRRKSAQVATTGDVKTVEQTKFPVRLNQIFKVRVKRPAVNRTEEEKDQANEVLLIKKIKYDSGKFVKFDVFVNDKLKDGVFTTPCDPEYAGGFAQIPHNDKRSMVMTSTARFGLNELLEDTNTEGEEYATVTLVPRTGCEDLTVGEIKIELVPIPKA
From the text: (§1) enzyme kinetics, diphenolase activity on CgAUS (aurone synthase from Coreopsis grandiflora)

[2] = target: T2, CgAUS (aurone synthase from Coreopsis grandiflora) (Coreopsis grandiflora, UniProt A0A075DN54); experiment: enzyme kinetics, diphenolase activity; type: biochemical; conditions: type-III copper enzyme, copper content 46.1%; read-out: Dopamine / K m
T2 construct: recombinant from E. coli, purified to homogeneity
T2 sequence (A0A075DN54 86-602): T1 sequence (A0A075DN54 86-602 C182S/T338D/R342D) with S97C, D253T, D257R
From the text: as §1

[3] = target: T3, CgAUS (aurone synthase from Coreopsis grandiflora) (Coreopsis grandiflora, UniProt A0A075DN54, T338D); experiment: enzyme kinetics, diphenolase activity; type: biochemical; conditions: type-III copper enzyme; read-out: Dopamine / K m
T3 construct: recombinant from E. coli, purified to homogeneity
T3 sequence (A0A075DN54 86-602 T338D): T1 sequence (A0A075DN54 86-602 C182S/T338D/R342D) with S97C, D257R
From the text: as §1

[4] = target: T4, CgAUS (aurone synthase from Coreopsis grandiflora) (Coreopsis grandiflora, UniProt A0A075DN54, C182S); experiment: enzyme kinetics, diphenolase activity; type: biochemical; conditions: type-III copper enzyme; read-out: Dopamine / K m
T4 construct: recombinant from E. coli, purified to homogeneity
T4 sequence (A0A075DN54 86-602 C182S): T1 sequence (A0A075DN54 86-602 C182S/T338D/R342D) with D253T, D257R
From the text: as §1

[5] = target: T5, CgAUS (aurone synthase from Coreopsis grandiflora) (Coreopsis grandiflora, UniProt A0A075DN54, T338D/R342D); experiment: enzyme kinetics, diphenolase activity; type: biochemical; conditions: type-III copper enzyme; read-out: Dopamine / K m
T5 construct: recombinant from E. coli, purified to homogeneity
T5 sequence (A0A075DN54 86-602 T338D/R342D): T1 sequence (A0A075DN54 86-602 C182S/T338D/R342D) with S97C
From the text: as §1

[6] = target: T6, CgAUS (aurone synthase from Coreopsis grandiflora) (Coreopsis grandiflora, UniProt A0A075DN54, R342D); experiment: enzyme kinetics, diphenolase activity; type: biochemical; conditions: type-III copper enzyme; read-out: Dopamine / K m
T6 construct: recombinant from E. coli, purified to homogeneity
T6 sequence (A0A075DN54 86-602 R342D): T1 sequence (A0A075DN54 86-602 C182S/T338D/R342D) with S97C, D253T
From the text: as §1

[7] = substrate: NCCc1ccc(O)cc1; experiment: enzyme kinetics, monophenolase activity; type: biochemical, Coreopsis grandiflora; conditions: type-III copper enzyme
From the text: enzyme kinetics, monophenolase activity on CgAUS (aurone synthase from Coreopsis grandiflora)

**Q.** Which results are given for `NCCc1ccc(O)c(O)c1` [dopamine]?
**A.** Km [1]: 60 µM; Km [2]: 8630 ± 280 µM; Km [3]: 1930 ± 120 µM; Km [4]: 1260 ± 40 µM; Km [5]: 240 ± 20 µM; Km [6]: 1260 ± 130 µM

B1: CgAUS (aurone synthase from Coreopsis grandiflora) (Coreopsis grandiflora; C182S) (protein)
chain: T1 sequence (A0A075DN54 86-602 C182S/T338D/R342D) with D253T, D257R
notes: recombinant from E. coli, purified to homogeneity
**Q.** Which results are given for B1?
**A.** Km [7]: 3590 ± 330 µM; kcat [7]: 0.55 ± 0.04 s⁻¹

B2: CgAUS (aurone synthase from Coreopsis grandiflora) (Coreopsis grandiflora; C182S/R342D/T338D) (protein)
chain: T1 sequence (A0A075DN54 86-602 C182S/T338D/R342D)
notes: as for B1
**Q.** Which Km [7] does the source give for B2 here?
**A.** Its Km is 20 ± 0 µM.

**Q.** And the kcat [7]?
**A.** The kcat was 6.52 ± 0.39 s⁻¹.

B3: CgAUS (aurone synthase from Coreopsis grandiflora) (Coreopsis grandiflora; R342D/T338D) (protein)
chain: T1 sequence (A0A075DN54 86-602 C182S/T338D/R342D) with S97C
notes: as for B1
**Q.** How did the Km [7] turn out when B3 was run?
**A.** Its Km is 1090 ± 90 µM.

**Q.** What about the kcat [7] of the same molecule?
**A.** The kcat was 9.48 ± 0.55 s⁻¹.

B4: CgAUS (aurone synthase from Coreopsis grandiflora) (Coreopsis grandiflora; R342D) (protein)
chain: T1 sequence (A0A075DN54 86-602 C182S/T338D/R342D) with S97C, D253T
notes: as for B1
**Q.** With B4 as the molecule, how does the Km [7] read?
**A.** The Km was 4010 ± 290 µM.

**Q.** And the kcat [7]?
**A.** The kcat was 8.26 ± 0.48 s⁻¹.

B5: CgAUS (aurone synthase from Coreopsis grandiflora) (Coreopsis grandiflora; T338D) (protein)
chain: T1 sequence (A0A075DN54 86-602 C182S/T338D/R342D) with S97C, D257R
notes: as for B1
**Q.** B5 was tested. Which Km [7] did it give?
**A.** Its Km is 30900 ± 7270 µM.

**Q.** What about the kcat [7] of the same molecule?
**A.** The kcat was 2.14 ± 0.16 s⁻¹.
